The source of these data is patent publication US10562935B2, “Stapled peptides and uses thereof” (London Health Sciences Centre Research Inc., priority 2015, dated 2020).

Where a SMILES comes first, the peptide text is derived from it. Bridges are numbered along the chain shown (N, C = ends). The star is where a group is joined. Biotin = O=C1N[C@H]2[C@H](CS[C@H]2CCCCC(=O)*)N1; AEEA = NCCOCCOCC(=O)O

One data set in a line: circular dichroism. The note with it: Milli-Q water; pH ns; ns °C; 0.5 mM. On the technique in general: CD spectra are sensitive to the conformation of chiral molecules.
For `CC(C)C[C@H](NC(=O)[C@H](CCCCN)NC(=O)[C@H](CO)NC(=O)[C@@H](N)C(C)C)C(=O)N[C@@H](CCCNC(=N)N)C(=O)N[C@@H](CO)C(=O)N[C@H]1CCC(=O)NCCCC[C@@H](C(=O)N[C@@H](CCCCN)C(=O)N[C@@H](CCC(N)=O)C(=O)N[C@@H](CC(N)=O)C(N)=O)NC(=O)[C@H](CCCCN)NC(=O)[C@H](C(C)C)NC(=O)[C@H](CC(C)C)NC1=O` (H-VSKLRSELVKKKQN-NH2; lactam 7-11), the helicity is -1570 MRE222.

Staying with this data set, now noted: water (methods paragraph says 0.1 M phosphate; tables say water); pH ns; 20 °C; 0.5 mM.
`CC[C@H](C)[C@H](NC(=O)[C@H](CCCCN)NC(=O)[C@H](CCC(N)=O)NC(=O)[C@H](CCCCN)NC(=O)[C@H](CC(C)C)NC(=O)[C@H](CC(N)=O)NC(C)=O)C(=O)N[C@H]1CCC(=O)NCCCC[C@@H](C(=O)N[C@@H](CC(C)C)C(=O)N[C@@H](CCCCN)C(=O)N[C@@H](CC(=O)O)C(=O)N[C@@H](CCC(=O)O)C(N)=O)NC(=O)[C@H](C(C)C)NC(=O)[C@H](C(C)C)NC(=O)[C@H](Cc2c[nH]cn2)NC1=O` (Ac-NLKQKIEHVVKLKDE-NH2; lactam 7-11): the helicity was -3850 MRE222.

As for `CC(=O)N[C@H](C(=O)N[C@@H](CO)C(=O)N[C@@H](CCCCN)C(=O)N[C@@H](CC(C)C)C(=O)N[C@@H](CCCNC(=N)N)C(=O)N[C@H]1CCC(=O)NCCCC[C@@H](C(=O)N[C@@H](CCCNC(=N)N)C(=O)N[C@@H](CCCCN)C(=O)N[C@@H](CCC(N)=O)C(=O)N[C@@H](CC(N)=O)C(N)=O)NC(=O)[C@H](C(C)C)NC(=O)[C@H](CC(C)C)NC(=O)[C@H](CCC(N)=O)NC1=O)C(C)C` (Ac-VSKLREQLVKRKQN-NH2; lactam 6-10), the helicity was -4850 MRE222. On the same count and under the same terms, the same measure for `CC[C@H](C)[C@H](NC(=O)[C@H](CCCCN)NC(=O)[C@H](CCC(N)=O)NC(=O)[C@H](CCCCN)NC(=O)[C@H](CC(C)C)NC(=O)[C@H](CC(N)=O)NC(C)=O)C(=O)N[C@@H](CCCCN)C(=O)N[C@H]1CCC(=O)NCCCC[C@@H](C(=O)N[C@@H](CCCCN)C(=O)N[C@@H](CC(=O)O)C(=O)N[C@@H](CCC(=O)O)C(N)=O)NC(=O)[C@H](CCCCN)NC(=O)[C@H](C(C)C)NC(=O)[C@H](C(C)C)NC1=O` (Ac-NLKQKIKEVVKKKDE-NH2; lactam 8-12): -1800 MRE222; for `CC[C@H](C)[C@@H]1NC(=O)[C@@H](NC(=O)[C@H](CCC(N)=O)NC(=O)[C@H](CCCCN)NC(=O)[C@H](CC(C)C)NC(=O)[C@H](CC(N)=O)NC(C)=O)CCC(=O)NCCCC[C@@H](C(=O)N[C@H](C(=O)N[C@@H](CCCCN)C(=O)N[C@@H](CC(C)C)C(=O)N[C@@H](CCCCN)C(=O)N[C@@H](CC(=O)O)C(=O)N[C@@H](CCC(=O)O)C(N)=O)C(C)C)NC(=O)[C@H](Cc2c[nH]cn2)NC(=O)[C@H](CCCCN)NC1=O` (Ac-NLKQEIKHKVKLKDE-NH2; lactam 5-9): -2830 MRE222; for `CC(=O)N[C@H](C(=O)N[C@@H](CO)C(=O)N[C@@H](CCCCN)C(=O)N[C@H]1CCC(=O)NCCCC[C@@H](C(=O)N[C@H](C(=O)N[C@@H](CCCCN)C(=O)N[C@@H](CCCNC(=N)N)C(=O)N[C@@H](CCCCN)C(=O)N[C@@H](CCC(N)=O)C(=O)N[C@@H](CC(N)=O)C(N)=O)C(C)C)NC(=O)[C@H](CCC(N)=O)NC(=O)[C@H](CO)NC(=O)[C@H](CCCNC(=N)N)NC1=O)C(C)C` (Ac-VSKERSQKVKRKQN-NH2; lactam 4-8): -3350 MRE222. Regarding `CC(=O)N[C@H](C(=O)N[C@@H](CO)C(=O)N[C@@H](CCCCN)C(=O)N[C@@H](CC(C)C)C(=O)N[C@H]1CCCCNC(=O)CC[C@@H](C(=O)N[C@@H](CCCCN)C(=O)N[C@@H](CCCNC(=N)N)C(=O)N[C@@H](CCCCN)C(=O)N[C@@H](CCC(N)=O)C(=O)N[C@@H](CC(N)=O)C(N)=O)NC(=O)[C@H](CC(C)C)NC(=O)[C@H](CCC(N)=O)NC(=O)[C@H](CO)NC1=O)C(C)C` (Ac-VSKLKSQLEKRKQN-NH2; lactam 5-9), the helicity is -974 MRE222. Regarding `CC[C@H](C)[C@@H]1NC(=O)[C@H](CCCCN)NC(=O)[C@@H](NC(=O)[C@H](CCCCN)NC(=O)[C@H](CC(C)C)NC(=O)[C@H](CC(N)=O)NC(C)=O)CCC(=O)NCCCC[C@@H](C(=O)N[C@H](C(=O)N[C@H](C(=O)N[C@@H](CCCCN)C(=O)N[C@@H](CC(C)C)C(=O)N[C@@H](CCCCN)C(=O)N[C@@H](CC(=O)O)C(=O)N[C@@H](CCC(=O)O)C(N)=O)C(C)C)C(C)C)NC(=O)[C@H](CCCCN)NC1=O` (Ac-NLKEKIKKVVKLKDE-NH2; lactam 4-8), the helicity was -2460 MRE222.

Experiment in another data set: not given
Particulars: biotinylated peptide, HA coated ELISA plate.
As to “Biotin-AEEA-(cyclo-6,10)-VSKLR[EQLVK]RKQN-NH2 [Compound 287]”, the “peptide concentration required for equivalent interaction with HA” value is 80 ng/mL. Same read-out and setting: the same measure for “{Biotin-AEEA}-VSKLRSQLVKRKQN-NH2 [Compound 284]”: 10000 ng/mL.
